Experimental data: the supplement of paper PMC6379048
pKd: −log10 of the molar value.

What was measured:
Test in all cases: Kd (EC50 corrected by depletion factor)
CPSF2 = biological target: T1, CPSF2 (UniProt Q9P2I0)
T1 sequence: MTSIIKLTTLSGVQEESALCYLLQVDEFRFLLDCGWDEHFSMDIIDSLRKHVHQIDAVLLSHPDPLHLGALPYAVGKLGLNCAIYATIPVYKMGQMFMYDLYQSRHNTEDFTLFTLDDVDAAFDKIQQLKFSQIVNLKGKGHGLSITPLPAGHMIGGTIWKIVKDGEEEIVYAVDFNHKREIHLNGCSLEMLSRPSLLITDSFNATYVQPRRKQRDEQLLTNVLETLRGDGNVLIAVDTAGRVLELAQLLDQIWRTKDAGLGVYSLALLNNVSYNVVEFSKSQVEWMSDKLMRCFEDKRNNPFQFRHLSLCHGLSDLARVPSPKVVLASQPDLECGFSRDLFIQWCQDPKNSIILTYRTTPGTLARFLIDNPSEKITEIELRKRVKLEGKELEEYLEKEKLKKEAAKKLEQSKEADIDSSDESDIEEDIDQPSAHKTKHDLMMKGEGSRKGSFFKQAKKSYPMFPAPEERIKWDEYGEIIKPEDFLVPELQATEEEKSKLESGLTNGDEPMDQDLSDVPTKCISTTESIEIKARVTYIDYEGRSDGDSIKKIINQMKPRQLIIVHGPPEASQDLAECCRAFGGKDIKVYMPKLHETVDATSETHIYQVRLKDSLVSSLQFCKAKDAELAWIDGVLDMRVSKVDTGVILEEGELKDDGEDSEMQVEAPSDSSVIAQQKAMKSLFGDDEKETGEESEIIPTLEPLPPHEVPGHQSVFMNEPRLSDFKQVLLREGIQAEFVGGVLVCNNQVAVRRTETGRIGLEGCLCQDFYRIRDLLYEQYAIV
Method in brief: (§1)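 HEK293-FT lysate (2.5 mg protein/well) was pre-incubated 1 h at 4°C with free RNA oligos (0 nM to 30 μM), then 30 min at 4°C with the same 5′-amino-C6 oligos coupled to NHS-Sepharose beads. Bound proteins were quantified by label-free LC-MS/MS in three biological replicates and two independent experiments, and normalised to the water control. EC50 came from a four-parameter log-logistic fit; Kd is EC50 times a protein-dependent depletion factor.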

CSTF2 = biological target: T2, CSTF2 (UniProt P33240)
T2 sequence: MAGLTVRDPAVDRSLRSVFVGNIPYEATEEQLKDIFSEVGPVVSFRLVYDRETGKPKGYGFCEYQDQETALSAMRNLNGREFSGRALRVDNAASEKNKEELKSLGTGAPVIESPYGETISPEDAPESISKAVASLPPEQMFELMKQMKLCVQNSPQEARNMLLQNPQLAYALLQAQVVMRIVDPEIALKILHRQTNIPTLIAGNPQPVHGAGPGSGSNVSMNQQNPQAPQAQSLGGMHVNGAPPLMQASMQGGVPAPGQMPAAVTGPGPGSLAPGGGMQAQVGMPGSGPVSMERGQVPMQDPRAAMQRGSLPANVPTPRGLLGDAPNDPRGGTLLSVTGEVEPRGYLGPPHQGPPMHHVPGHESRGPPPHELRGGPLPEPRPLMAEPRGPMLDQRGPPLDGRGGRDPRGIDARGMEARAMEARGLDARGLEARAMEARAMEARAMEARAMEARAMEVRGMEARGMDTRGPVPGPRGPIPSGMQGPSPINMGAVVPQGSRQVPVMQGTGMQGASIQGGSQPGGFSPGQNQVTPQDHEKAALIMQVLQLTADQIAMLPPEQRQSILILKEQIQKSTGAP
Method in brief: as §1

ZNF830 = biological target: T3, ZNF830 (UniProt Q96NB3)
T3 sequence: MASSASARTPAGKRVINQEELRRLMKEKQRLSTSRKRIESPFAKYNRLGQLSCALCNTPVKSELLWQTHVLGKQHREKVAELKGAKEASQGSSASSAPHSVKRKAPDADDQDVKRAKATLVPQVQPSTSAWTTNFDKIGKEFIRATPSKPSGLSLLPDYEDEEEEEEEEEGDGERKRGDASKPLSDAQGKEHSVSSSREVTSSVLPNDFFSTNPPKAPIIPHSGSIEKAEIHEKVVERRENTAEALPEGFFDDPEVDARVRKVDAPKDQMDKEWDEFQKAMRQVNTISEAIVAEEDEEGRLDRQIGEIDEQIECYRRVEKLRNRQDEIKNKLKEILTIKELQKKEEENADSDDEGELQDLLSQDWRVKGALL
Method in brief: as §1

Sequence	pKd (CPSF2)	pKd (CSTF2)	pKd (ZNF830)
AAUAAA	8.25	8.11	6.42
UAUUUAU	6.35	6.54	6.64
